Laboratory results taken from US6835378B2, “Method and compositions for inhibiting thrombin-induced coagulation” (The Texas A&M University System University, priority 2001, dated 2004).
“Also recorded” adds a separate entry of the source.

System: contortrixobin digestion of Fg
Experiment: Fibrinopeptide B release by contortrixobin, HPLC
Type: biochemical, human
Conditions: 1:5 ratio of Fg to rSdrG(50-597) (1.5 μM), 60 min
Description: Superimposed chromatograms show the amount of fibrinopeptide released when the Fg-contortrixobin sample has no SdrG present (upper curve) and when the Fg-contortrixobin sample is incubated with 1.5 μM rSdrG(50-597) (lower curve) at the 60 min time point.
Analysis of Fibrinopeptide B Release by HPLC—As in chapter two, we monitored the fibrinopeptide release in the presence of SdrG and the β-fibrinogenase contortrixobin. The HPLC chromatograms shown in FIG. 10 show the expected fibrinopeptide release following digestion of Fg with contortrixobin superimposed with the fibrinopeptide release when Fg and contortrixobin are incubated with rSdrG(50-597). […] This is most likely because FpA is still intact on the Fg molecule, thus contortrixobin is not as effective at cleaving Fg due to steric hindrance from FpA.

B1: rSdrG(50-597): recombinant His-tagged A region (residues 50-597) of SdrG, a fibrinogen-binding MSCRAMM from S. epidermidis (protein)
chain: HHHHHHAEENTVQDVKDSNMDDELSDSNDQSSNEEKNDVINNSQSINTDDDNQIKKEETNSNDAIENRSKDITQSTTNVDENEATFLQKTPQDNTQLKEEVVKEPSSVESSNSSMDTAQQPSHTTINSEASIQTSDNEENSRVSDFANSKIIESNTESNKEENTIEQPNKVREDSITSQPSSYKNIDEKISNQDELLNLPINEYENKVRPLSTTSAQPSSKRVTVNQLAAEQGSNVNHLIKVTDQSITEGYDDSDGIIKAHDAENLIYDVTFEVDDKVKSGDTMTVNIDKNTVPSDLTDSFAIPKIKDNSGEIIATGTYDNTNKQITYTFTDYVDKYENIKAHLKLTSYIDKSKVPNNNTKLDVEYKTALSSVNKTITVEYQKPNENRTANLQSMFTNIDTKNHTVEQTIYINPLRYSAKETNVNISGNGDEGSTIIDDSTIIKVYKVGDNQNLPDSNRIYDYSEYEDVTNDDYAQLGNNNDVNINFGNIDSPYIIKVISKYDPNKDDYTTIQQTVTMQTTINEYTGEFRTASYDNTIAFSTSSGQGQGDLPPE
FpB release by contortrixobin: effectively inhibit FpB release; also recorded: decrease in the amount of FpB released | FpB release by contortrixobin (listed as rSdrG (50-597)): A decrease in the amount of FpB release
